Numbering of substitutions follows the chain as printed.
T1: hsGLUT4 Y159A (human, UniProt P14672 1-509)
T1 sequence: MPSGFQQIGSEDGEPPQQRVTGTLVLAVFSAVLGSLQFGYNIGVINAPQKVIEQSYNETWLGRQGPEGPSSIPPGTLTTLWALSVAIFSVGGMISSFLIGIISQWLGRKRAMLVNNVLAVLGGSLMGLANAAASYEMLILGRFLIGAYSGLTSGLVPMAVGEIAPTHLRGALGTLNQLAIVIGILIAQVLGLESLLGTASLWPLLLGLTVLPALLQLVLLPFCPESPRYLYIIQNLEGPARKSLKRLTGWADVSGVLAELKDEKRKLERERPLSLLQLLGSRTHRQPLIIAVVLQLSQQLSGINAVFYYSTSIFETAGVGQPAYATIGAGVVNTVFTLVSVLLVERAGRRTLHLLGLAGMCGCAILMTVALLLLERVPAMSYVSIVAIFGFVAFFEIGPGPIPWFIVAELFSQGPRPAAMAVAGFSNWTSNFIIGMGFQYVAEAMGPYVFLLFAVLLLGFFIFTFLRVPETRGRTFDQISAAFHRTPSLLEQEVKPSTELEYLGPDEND

T2: mouse GLUT4 (mmGLUT4) (mouse, UniProt P14142 1-509)
T2 construct: whole, on cells; Also tested as endogenous protein in murine 3T3-L1 adipocytes; also called endogenous GLUT4 of 3T3-L1 adipocytes
T2 sequence (looked up): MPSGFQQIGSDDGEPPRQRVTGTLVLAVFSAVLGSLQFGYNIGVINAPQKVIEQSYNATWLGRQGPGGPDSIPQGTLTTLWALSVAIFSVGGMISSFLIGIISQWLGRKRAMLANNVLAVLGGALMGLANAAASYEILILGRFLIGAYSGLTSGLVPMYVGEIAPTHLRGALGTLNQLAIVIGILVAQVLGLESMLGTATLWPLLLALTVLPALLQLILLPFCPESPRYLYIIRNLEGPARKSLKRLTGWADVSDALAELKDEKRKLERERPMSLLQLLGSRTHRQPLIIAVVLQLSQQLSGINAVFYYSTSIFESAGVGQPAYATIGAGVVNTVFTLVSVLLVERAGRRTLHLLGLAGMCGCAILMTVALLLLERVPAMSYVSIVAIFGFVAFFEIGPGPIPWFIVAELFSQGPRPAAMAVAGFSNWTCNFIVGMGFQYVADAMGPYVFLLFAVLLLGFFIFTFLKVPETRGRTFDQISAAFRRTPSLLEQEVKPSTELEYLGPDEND

T3: hsGLUT4 I313A (human, UniProt P14672 1-509)
T3 sequence: T1 sequence with A159Y, I313A

B1: AB102 (Fc fusion)
scFv: ALTQPSSVSANLGGTVKITCSGGGSYGYGWYQQKSPGSAPVTVIYSNDQRPSDIPSRFSGSKSGSTATLTITGVRAEDEAIYYCGSTDSDYVGIFGAGTTLTVLGQSSRSSGGGGSSGGGGSAVTLDESGGGLQTPGGTLSLVCKASGFDFSSYATIWVRQAPGKGLEWVAGISGTGTGSSTGYAPAVKGRATISRDNGQSTVRLQLNNLRAEDTGSYFCAKSTGYGDSWIYPDSIDAWGHGTEVIVSS
notes: also called MAb AB102; not shown: Fc fragment of human IgG1, cloned in frame with the scFv
B2: AB111 (Fc fusion)
scFv: ALTQPSSVSANPGETVKITCSGSGSWYGWFQQKSPGSAPVTVIYSNDKRPSDIPSRFSGSKSGSTSTLTITGVQVEDEAVYYCGNWDIFGAGTTLTVLGQSSRSSGGGGSSGGGGSAVTLDESGGGLQTPGGALSLVCKASGFTFSSHGMGWVRQAPGKGLEWVASISTGRYTFYAPAVKGRATISRDNGQSTVRLQLNNLRAEDTATYYCTKCAGLNGCGGGEIDAWGHGTEVIVSS
notes: Bivalent scFv-Fc; also called MAb AB111; not shown: Fc fragment of human IgG1, cloned in frame with the scFv

How the values were obtained:
hsGLUT4 Y159A = target: T1, hsGLUT4 Y159A; experiment: flow cytometry, alanine-scan library in HEK-293T, with cytochalasin B
mouse GLUT4 (mmGLUT4) = target: T2, mouse GLUT4 (mmGLUT4); experiment: immunofluorescence, permeabilized 3T3-L1 adipocytes (data not shown)
Experimental: Adipocytes, between 7-8 days post-differentiation, were serum-starved for 3 hours in Dulbecco's modified Eagle's medium with […] bicarbonate and 20 mM HEPES pH 7.4, prior to stimulation for 20 minutes at 37° C. with or without 170 nM human insulin (Sigma Aldrich) prepared in the same media with 2% BSA. Adipocytes were washed twice with ice-cold PBS with calcium and magnesium (PBS+/+) and remained on ice for all subsequent steps.
Adipocytes were blocked with 10% Normal Goat Serum (NGS) in PBS+/+ for 30 minutes on ice before adding test antibodies at 10 ug/ml in 10% NGS. Primary antibodies were incubated for 2 hours, then washed 2× with PBS+/+. Cells were subsequently fixed for 5 minutes in 4% paraformaldehyde (PFA), washed 2× with PBS+/+, and then stained with secondary antibody (AF488 conjugated Goat anti-human, Jackson Immunoresearch) diluted 1:200 in 10% NGS. Secondary antibody was incubated for 1 hour, after washing 3× with PBS+/+. For intracellular staining, cells were fixed prior to the blocking step and permeabilized with 10% NGS containing 0.2% Saponin. The 1F8 antibody was used at 1 μg/ml, and detected using AF647-conjugated goat anti-mouse secondary antibody diluted 1:400 (Jackson Immunoresearch). Alexafluor 488 was visualized using the B-2EC cube with an exposure time of 1.5 seconds. Alexafluor 647 was visualized using the Cy5 cube with an exposure time of 2 seconds.

hsGLUT4 I313A = target: T3, hsGLUT4 I313A; experiment: flow cytometry, alanine-scan library in HEK-293T, with cytochalasin B
Experimental: Because of the state-dependence of the isolated MAbs, we next wished to understand the mechanism by which each MAb could recognize GLUT4 in its different conformations. The residues required for binding of each MAb were determined using shotgun mutagenesis comprehensive alanine scanning (Davidson E & Doranz B J (2014) A High-Throughput Shotgun Mutagenesis Approach to Mapping B-cell Antibody Epitopes. Immunology, which is hereby incorporated by reference in its entirety). All residues of hsGLUT4 were individually mutated to alanine, with existing alanines changed to serines. Mutations were obtained for 508 of the 509 residues of GLUT4 (excluding the initiating methionine). The entire mutation library was transfected into human HEK-293T cells in a 384-well array format (one clone per well) and assessed for immunoreactivity using high-throughput flow cytometry.
HEK-293T cells were transfected by CaPO₄ with plasmids in 6-well culture plates (Falcon) at 750,000 cells/well. At 48 hours post transfection, cells were stained with anti-V5 and anti-GLUT4 MAbs (purified scFv, 2 μg/ml) followed by biotinylated goat anti-mouse or human antibody (1:500) and streptavidin-PerCP (1:500). Fluorescence was detected using an Intellicyt high-throughput flow cytometer (HTFC; Intellicyt, Albuquerque, N. Mex.). For cell permeabilization, cells were treated with saponin at 0.1% in PBS for 20 minutes. To discriminate intact (live) and permeabilized (dead) cells without the use of detergent, propidium iodide (PI) was added to HEK-293T cells at 1 ug/ml just prior to flow cytometry. Where indicated, cytochalasin B (Sigma) was used at a final concentration of 10 uM and phloretin (Sigma) was used at a final concentration of 100 uM, each added in 10% NGS for 30 minutes prior to antibody staining as well as included with the primary antibody.

Binder | % of binding to wild type GLUT4 (hsGLUT4 Y159A) [%] | binding result (mouse GLUT4 (mmGLUT4)) | % of binding to wild type GLUT4 (hsGLUT4 I313A) [%]
B1 | 11 | binds | 15
B2 |  | binds | 

Source: patent publication US20210238276A1 (INTEGRAL MOLECULAR, published 2021)
